In assay [1] the target is recombinant soluble human CD4 (human) (UniProt P01730). Kind of assay: SPR sensor chip; sCD4 amine-coupled, mAb flowed.
The target is the same in assay [2]. Description: BIAcore; rCD4 coupled to chip, mAb flowed. On the technique in general: SPR reads the build-up and loss of mass on a sensor chip optically.

The koff is a measure of how fast the partners let go of each other. As a reminder, the kon is the rate constant with which the complex forms.

For the substance “Leu3a, mouse anti-human CD4 monoclonal antibody”, in assay [1], the Ka worked out at 3.7e+10 M⁻¹, the koff is 4.2e-06 s⁻¹ and the on-rate constant (kon) stood at 150000 M⁻¹ s⁻¹. In assay [2], the Ka was found to be 3.7e+10 M⁻¹, the koff is 4.2e-06 s⁻¹ and the on-rate (kon) came to 150000 M⁻¹ s⁻¹.

These data come from patent US20100287629A1.
